Source: patent US20240092919A1 (Ablynx, published 2024)
Where a chain is given by its changes, count along the chain named. Numbers in names are those of the source.

T1: Human T cell receptor on human primary T cells (human, UniProt P01848 1-140; P01850 1-176)
T1 TCR alpha (looked up): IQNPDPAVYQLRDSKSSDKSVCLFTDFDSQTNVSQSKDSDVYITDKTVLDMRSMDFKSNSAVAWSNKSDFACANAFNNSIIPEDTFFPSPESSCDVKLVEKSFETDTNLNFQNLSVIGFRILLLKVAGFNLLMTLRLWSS
T1 TCR beta (looked up): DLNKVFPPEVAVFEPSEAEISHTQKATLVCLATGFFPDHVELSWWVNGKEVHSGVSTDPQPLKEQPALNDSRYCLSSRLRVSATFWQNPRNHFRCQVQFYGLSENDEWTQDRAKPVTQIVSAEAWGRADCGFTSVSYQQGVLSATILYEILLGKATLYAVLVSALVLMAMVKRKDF

T2: Cynomolgus TCR(AEA41865/AEA41866)-zipper protein (cynomolgus monkey)
T2 construct: also called cyTCR-zipper protein; cynoTCR zipper
T2 TCR alpha: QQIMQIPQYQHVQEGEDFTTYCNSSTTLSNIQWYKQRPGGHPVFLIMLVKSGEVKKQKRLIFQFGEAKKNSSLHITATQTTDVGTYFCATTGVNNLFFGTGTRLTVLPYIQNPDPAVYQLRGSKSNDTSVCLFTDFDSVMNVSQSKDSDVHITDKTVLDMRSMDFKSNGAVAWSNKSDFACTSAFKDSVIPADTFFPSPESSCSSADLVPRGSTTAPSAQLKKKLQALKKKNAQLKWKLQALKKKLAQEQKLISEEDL
T2 TCR beta: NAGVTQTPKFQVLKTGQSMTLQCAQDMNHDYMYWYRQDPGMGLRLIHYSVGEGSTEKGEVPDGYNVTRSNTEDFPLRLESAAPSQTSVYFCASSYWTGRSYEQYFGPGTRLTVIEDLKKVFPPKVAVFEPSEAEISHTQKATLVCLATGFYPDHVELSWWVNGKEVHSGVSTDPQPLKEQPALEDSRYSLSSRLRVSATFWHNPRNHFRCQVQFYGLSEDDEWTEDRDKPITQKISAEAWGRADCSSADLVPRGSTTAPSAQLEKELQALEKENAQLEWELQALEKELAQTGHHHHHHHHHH

T3: Cynomolgus TCR(AEA41865/AEA41866)-zipper protein (cynomolgus monkey)
T3 construct: also called cyTCR-zipper protein; cynoTCR zipper
T3 TCR alpha: T2 TCR alpha
T3 TCR beta: T2 TCR beta

B1: T017000630 (bispecific antibody)
chain: DVQLVESGGGLVQAGGSLRLSCAASGITSKINDMGWYRQTPGNYREWVASITATGTTNYRDSVKGRFTISRDNAKSTVYLQMNSLKPEDTTVYYCNTFPPISNFWGQGTLVTVSSGGGGSGGGGSGGGGSGGGGSGGGGSGGGGSGGGGSEVQLVESGGGVVQPGGSLRLSCVASWDVHKINFYGWYRQAPGKEREKVAHISIGDQTDYADSAKGRFTISRDESKNTVYLQMNSLRPEDTALYYCRALSKIWPYDYWGQGTLVTVSSA
notes: also called A0110056A10(E1D)-35GS-T0170056G05(L11V, G26W, L34Y, M77T, K83R, V89L, F91Y, F95L, R97K, Y99W)-A
B2: T017000631 (bispecific antibody)
chain: B1 chain with W176Y
notes: also called A0110056A10(E1D)-35GS-T0170056G05(L11V, G26Y, L34Y, M77T, K83R, V89L, F91Y, F95L, R97K, Y99W)-A
B3: T017000161 (VHH)
VHH: EVQLVESGGGVVQPGGSLRLSCVASGEVHKINFLGWYRQAPGKEREKVAHISIGDQTDYADSAKGRFTISRDESKNMVYLQMNSLRPEDTALYFCRAFSRIYPYDYWGQGTLVTVSS
B4: T017000177 (VHH)
VHH: B3 VHH with E27S
B5: T017000170 (VHH)
VHH: B3 VHH with E27D, F33Y
B6: T017000185 (VHH)
VHH: B3 VHH with E27D, L34F
B7: T017000200 (VHH)
VHH: B3 VHH with E27D, G35R
B8: T017000179 (VHH)
VHH: B3 VHH with E27D, G35T
B9: T017000176 (VHH)
VHH: B3 VHH with E27D, I31L
B10: T017000190 (VHH)
VHH: B3 VHH with E27D, G35S
B11: T017000188 (VHH)
VHH: B3 VHH with E27A
B12: T017000173 (VHH)
VHH: B3 VHH with E27D, F33V
B13: T017000180 (VHH)
VHH: B3 VHH with G26Q, E27D
B14: T017000164 (VHH)
VHH: B3 VHH with E27Y
B15: T017000166 (VHH)
VHH: B3 VHH with E27D, L34Y
B16: T017000196 (VHH)
VHH: B3 VHH with E27D, N32F
B17: T017000174 (VHH)
VHH: B3 VHH with G26W, E27D
B18: T017000163 (VHH)
VHH: B3 VHH with E27D, K30Q
notes: also called T017000745
B19: T017000208 (VHH)
VHH: B3 VHH with G26Y, E27D
B20: T017000249 (VHH)
VHH: B3 VHH with E27D, Q56V
B21: T017000223 (VHH)
VHH: B3 VHH with E27D, T57A
B22: T017000234 (VHH)
VHH: B3 VHH with E27D, H50M
B23: T017000258 (VHH)
VHH: B3 VHH with E27D, D55E
B24: T017000235 (VHH)
VHH: B3 VHH with E27D, Q56H
B25: T017000241 (VHH)
VHH: B3 VHH with E27D, D58N
B26: T017000254 (VHH)
VHH: B3 VHH with E27D, Q56R
B27: T017000233 (VHH)
VHH: B3 VHH with E27D, T57S
B28: T017000245 (VHH)
VHH: B3 VHH with E27D, G54A
B29: T017000232 (VHH)
VHH: B3 VHH with E27D, T57V
B30: T017000231 (VHH)
VHH: B3 VHH with E27D, H50V
B31: T017000238 (VHH)
VHH: B3 VHH with E27D, Q56E
B32: T017000287 (VHH)
VHH: B3 VHH with E27D, D105Q
B33: T017000291 (VHH)
VHH: B3 VHH with E27D, Y102W
B34: T017000285 (VHH)
VHH: B3 VHH with E27D, D105L
B35: T017000301 (VHH)
VHH: B3 VHH with E27D, D105A
B36: T017000281 (VHH)
VHH: B3 VHH with E27D, F98M
B37: T017000302 (VHH)
VHH: B3 VHH with E27D, D105T
B38: T017000290 (VHH)
VHH: B3 VHH with E27D, R100K
B39: T017000283 (VHH)
VHH: B3 VHH with E27D, R100S
B40: T017000278 (VHH)
VHH: B3 VHH with E27D, D105S
B41: T017000294 (VHH)
VHH: B3 VHH with E27D, Y106W
B42: T017000312 (VHH)
VHH: B3 VHH with E27D, F98L
B43: T017000690 (VHH, not shown: small tags and cut ends)
VHH: B3 VHH with G26W, L34Y, M77T, F94Y, F98L, Y102W
B44: T017000638 (VHH, not shown: small tags and cut ends)
VHH: B3 VHH with G26W, E27D, L34Y, G35T, M77T, F94Y, F98L, Y102W
B45: T017000686 (VHH, not shown: small tags and cut ends)
VHH: B3 VHH with E27S, L34Y, M77T, F94Y, F98L, Y102W
B46: T017000682 (VHH, not shown: small tags and cut ends)
VHH: B3 VHH with E27A, L34Y, M77T, F94Y, F98L, Y102W

Target: T1, Human T cell receptor on human primary …
Experiment: cell-based or functional assay
Wherever % Lysis, T cell mediated MOLM-13 cell killing, human primary T cells, E:T 10:1 is given: test concentration or dose not given here.

| Binder | % Lysis, T cell mediated MOLM-13 cell killing, human primary T cells, E:T 10:1 [%] |
| --- | --- |
| B1 | 0 |
| B2 | 0 |

target: Cynomolgus T cell receptor on cynomolgus primary T cells (cynomolgus monkey); experiment: cell-based or functional assay; on % Lysis, T cell mediated MOLM-13 cell killing, cynomolgus primary T cells, E:T 10:1: test concentration or dose not given here

| Binder | EC50 (M), T cell mediated MOLM-13 cell killing, cynomolgus primary T cells, E:T 10:1 [M] | % Lysis, T cell mediated MOLM-13 cell killing, cynomolgus primary T cells, E:T 10:1 [%] |
| --- | --- | --- |
| B1 | 4.5e-10 | – |
| B2 | 2e-10 | 35 |

Target: T2, Cynomolgus …
Experiment: SPR ProteOn off-rate screen
Excerpt: (§1) Unique ISVD clones, i.e. clones with a unique sequence, were subsequently selected and screened to determine their off-rate. To this purpose, the ISVD containing periplasmic extracts were screened on huTCR-zipper and cyTCR-zipper protein by SPR on a ProteOn XPR36 instrument. The zipper proteins were immobilized on a GLC sensor chip (between 4300 and 5100RU) via amine coupling chemistry, using EDC/sulfo-NHS for activation of the carboxyl groups on the chip surface (running buffer: HBS-EP+, pH7.4). Periplasmic extracts were injected at 1/10 dilution for 2 min (at a flow rate of 45 μL/min) and dissociation was followed for 900 s. A pulse of 100 s of 3 M MgCl2 at 45 μL/min was used for regeneration. […] Processed sensorgrams were fitted with the Langmuir model (1:1 interaction) using ProteOn Manager 3.1.0 (Version 3.1.0.6) software.

| Binder | koff [s⁻¹] |
| --- | --- |
| B3 | 0.00624 |
| B4 | 0.00325 |
| B5 | 0.00806 |
| B6 | 0.0114 |
| B7 | 0.058 |
| B8 | 0.00775 |
| B9 | 0.00791 |
| B10 | 0.0107 |
| B11 | 0.00389 |
| B12 | 0.00903 |
| B13 | 0.00998 |
| B14 | 0.00412 |
| B15 | 0.00825 |
| B16 | 0.00419 |
| B17 | 0.00791 |
| B18 | 0.00642 |
| B19 | 0.0147 |

Target: T2, Cynomolgus …
Experiment: SPR ProteOn off-rate screen
Remark: another data set of the same source
Excerpt: as §1

| Binder | koff [s⁻¹] |
| --- | --- |
| B20 | 0.00939 |
| B21 | 0.0109 |
| B22 | 0.0118 |
| B23 | 0.0107 |
| B24 | 0.011 |
| B25 | 0.0167 |
| B26 | 0.0118 |
| B27 | 0.0102 |
| B28 | 0.00936 |
| B29 | 0.00895 |
| B30 | 0.00867 |
| B31 | 0.00957 |

Target: T2, Cynomolgus …
Experiment: SPR ProteOn off-rate screen
Remark: another data set of the same source
Excerpt: as §1

| Binder | koff [s⁻¹] |
| --- | --- |
| B32 | 0.0121 |
| B33 | 0.00672 |
| B34 | 0.0216 |
| B35 | 0.0178 |
| B36 | 0.00555 |
| B37 | 0.0148 |
| B38 | 0.00171 |
| B39 | 0.00559 |
| B40 | 0.0162 |
| B41 | 0.0151 |
| B42 | 0.0087 |

Target: T2, Cynomolgus …
Experiment: SPR ProteOn off-rate screen
Remark: another data set of the same source

| Binder | koff [s⁻¹] |
| --- | --- |
| B18 | 0.00701 |

Target: T1, Human T cell receptor on human primary …
Experiment: flow cytometry, human primary T cells
Description: The ISVD variants were characterized for binding to CHO-K1 huTCR(2XN9)/huCD3 or to human and cynomolgus primary T cells. […] Next, cells were washed 3 times with FACS buffer and incubated with 1 μg/ml ANTI-FLAG® M2 Ab (Sigma, F1804) and washed again. […] Subsequently, cells were resuspended in FACS buffer supplemented with 5 nM TO-PRO®-3 Iodide to distinguish live from dead cells, which are removed during the gating procedure. Cells were analyzed using a FACS Array flow cytometer (BD Biosciences) and Flowing Software. First a P1 population which represented more than 80% of the total cell population was selected based on FSC-SSC distribution. In this gate, 10000 cells were counted during acquisition. From this population the TO-PRO®-3+cells (dead cells) were excluded and the mean fluorescence intensity (MFI) PE value was calculated.

| Binder | EC50 [nM] |
| --- | --- |
| B43 | 66 |
| B44 | 66 |
| B45 | 55 |
| B46 | 58 |

Target: T3, Cynomolgus …
Experiment: SPR, ProteOn XPR36, 25 C, immobilised TCR-zipper
Excerpt: HuTCR-zipper or cyTCR-zipper protein was immobilized on a GLC sensor chip (between 100-200 RU) via amine coupling chemistry, using EDC/NHS for activation of the carboxyl groups on the chip surface (running buffer: HBS-EP+, pH7.4). […] Processed sensorgrams were fitted with the Langmuir model (1:1 interaction) using ProteOn Manager 3.1.0 (Version 3.1.0.6) software.

| Binder | Kd [nM] |
| --- | --- |
| B1 | 240 |
| B2 | 290 |
